T1: recombinant human CDH17 (R&D systems) (human, UniProt Q12864 23-787)
T1 construct: Bought recombinant protein coated on the ELISA plate; also called human Cadherin-17
T1 sequence: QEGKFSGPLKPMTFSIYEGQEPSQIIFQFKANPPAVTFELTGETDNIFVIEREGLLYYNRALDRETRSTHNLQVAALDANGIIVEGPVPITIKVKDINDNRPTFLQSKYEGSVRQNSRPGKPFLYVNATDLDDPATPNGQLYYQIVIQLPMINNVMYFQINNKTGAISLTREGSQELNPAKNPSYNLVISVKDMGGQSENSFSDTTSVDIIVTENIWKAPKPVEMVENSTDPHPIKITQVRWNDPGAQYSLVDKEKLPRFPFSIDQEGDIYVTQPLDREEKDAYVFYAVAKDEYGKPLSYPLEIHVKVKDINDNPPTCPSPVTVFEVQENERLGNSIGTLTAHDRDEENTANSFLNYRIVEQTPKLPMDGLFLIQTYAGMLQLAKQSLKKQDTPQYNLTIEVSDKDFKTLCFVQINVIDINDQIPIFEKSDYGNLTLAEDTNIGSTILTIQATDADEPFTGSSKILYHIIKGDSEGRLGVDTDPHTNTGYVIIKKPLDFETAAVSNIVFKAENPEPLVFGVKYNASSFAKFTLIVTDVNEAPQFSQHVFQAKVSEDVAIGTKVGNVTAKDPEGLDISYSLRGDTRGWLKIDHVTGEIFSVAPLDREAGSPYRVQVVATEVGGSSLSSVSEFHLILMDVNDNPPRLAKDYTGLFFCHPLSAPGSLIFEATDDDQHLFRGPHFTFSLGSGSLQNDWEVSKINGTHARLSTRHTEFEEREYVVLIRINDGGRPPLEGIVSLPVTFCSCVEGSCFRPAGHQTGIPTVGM

T2: human CDH17 on AGS gastric cancer cells and AsPC-1 pancreatic cancer cells (human, UniProt Q12864 23-832)
T2 construct: Native CDH17 on the surface of cancer cell lines; also called CDH17 expressing AGS cells; CDH17 expressing AsPC-1 pancreatic cancer cells
T2 sequence: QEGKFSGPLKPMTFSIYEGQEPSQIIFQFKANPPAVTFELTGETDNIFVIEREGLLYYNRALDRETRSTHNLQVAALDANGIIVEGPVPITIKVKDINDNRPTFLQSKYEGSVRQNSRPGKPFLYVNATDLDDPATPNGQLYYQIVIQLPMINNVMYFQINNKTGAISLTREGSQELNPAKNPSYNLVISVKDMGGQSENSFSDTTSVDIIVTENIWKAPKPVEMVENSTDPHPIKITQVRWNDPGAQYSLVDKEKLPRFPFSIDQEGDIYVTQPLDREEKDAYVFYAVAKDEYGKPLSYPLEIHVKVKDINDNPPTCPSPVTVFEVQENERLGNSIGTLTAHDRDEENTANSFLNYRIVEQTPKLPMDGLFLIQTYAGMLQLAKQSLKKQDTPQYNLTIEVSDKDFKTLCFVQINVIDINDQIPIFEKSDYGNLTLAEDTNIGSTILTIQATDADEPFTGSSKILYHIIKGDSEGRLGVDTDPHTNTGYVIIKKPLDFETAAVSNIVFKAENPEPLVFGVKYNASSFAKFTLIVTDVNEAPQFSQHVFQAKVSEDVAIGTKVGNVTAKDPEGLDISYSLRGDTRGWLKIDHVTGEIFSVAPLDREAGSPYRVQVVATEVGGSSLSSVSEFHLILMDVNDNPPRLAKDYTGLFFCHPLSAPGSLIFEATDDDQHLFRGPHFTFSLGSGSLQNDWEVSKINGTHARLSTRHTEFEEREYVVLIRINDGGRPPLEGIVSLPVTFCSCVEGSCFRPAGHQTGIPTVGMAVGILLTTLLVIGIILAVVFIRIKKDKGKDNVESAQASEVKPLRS

B1: VHO v364 (VHH)
VHH: EVQLLESGGGLVQPGGSLRLSCAASGFTFSDYWMSWVRQAPGKGLEWVSNISGSGGSTYYADSVKGRFTISRDNSKNTLYLQMNSLRAEDTAVYYCAKTSDWLLHDADLHFDYWGQGTLVTVSS
notes: Variable-heavy-only (VHO) single domain; also called TS00364; CDH17-VHO364
B2: VHO v363 (VHH)
VHH: EVQLLESGGGLVQPGGSLRLSCAASGFTFSTYWMSWVRQAPGKGLEWVSNISQDGGSTYYADSVKGRFTISRDNSKNTLYLQMNSLRAEDTAVYYCAKTTDWLQDKVDEAFDYWGQGTLVTVSS
notes: Variable-heavy-only (VHO) single domain; also called TS00363
B3: VHO v379 (VHH)
VHH: EVQLLESGGGLVQPGGSLRLSCAASGFTFSSYGMSWVRQAPGKGLEWVSNINQSGSSTYYADSVKGRFTISRDNSKNTLYLQMNSLRAEDTAVYYCAKHSHWAHRVLQSFDYWGQGTLVTVSS
notes: Variable-heavy-only (VHO) single domain; also called TS00379
B4: VHO v374 (VHH)
VHH: EVQLLESGGGLVQPGGSLRLSCAASGFTFSTYWMSWVRQAPGKGLEWVSGINQDGSSTYYADSVKGRFTISRDNSKNTLYLQMNSLRAEDTAVYYCAKWHWAGSSQQFDYWGQGTLVTVSS
notes: VHO single domain; also called TS00374
B5: VHO v362 (VHH)
VHH: EVQLLESGGGLVQPGGSLRLSCAASGFTFSDYWMSWVRQAPGKGLEWVSNISSDGGSTYYADSVKGRFTISRDNSKNTLYLQMNSLRAEDTAVYYCAKTTTWLLSQHDKTSFDYWGQGTLVTVSS
notes: Variable-heavy-only (VHO) single domain; also called TS00362
B6: VHO v347 (VHH)
VHH: EVQLLESGGGLVQPGGSLRLSCAASGFTFSTYAMSWVRQAPGKGLEWVSNISGSGGSTYYADSVKGRFTISRDNSKNTLYLQMNSLRAEDTAVYYCAKEQQWVPGFGFDYWGQGTLVTVSS
notes: Variable-heavy-only (VHO) single domain; also called TS00347
B7: VHO v351 (VHH)
VHH: EVQLLESGGGLVQPGGSLRLSCAASGFTFSSYAMSWVRQAPGKGLEWVSNISGSGSSTYYADSVKGRFTISRDNSKNTLYLQMNSLRAEDTAVYYCAKESQHSPGWGFDYWGQGTLVTVSS
notes: Variable-heavy-only (VHO) single domain; also called TS00351
B8: VHO v372 (VHH)
VHH: EVQLLESGGGLVQPGGSLRLSCAASGFTFSSYWMSWVRQAPGKGLEWVSGINYSGSSTYYADSVKGRFTISRDNSKNTLYLQMNSLRAEDTAVYYCAKWSWLGSDKADFDYWGQGTLVTVSS
notes: Variable-heavy-only (VHO) single domain; also called TS00372
B9: VHO v371 (VHH)
VHH: EVQLLESGGGLVQPGGSLRLSCAASGFTFSNYWMSWVRQAPGKGLEWVSGINGSGGSTYYADSVKGRFTISRDNSKNTLYLQMNSLRAEDTAVYYCAKWHWYGQEKKAFDYWGQGTLVTVSS
notes: Variable-heavy-only (VHO) single domain; also called TS00371
B10: VHO v376 (VHH)
VHH: EVQLLESGGGLVQPGGSLRLSCAASGFTFSDYWMSWVRQAPGKGLEWVSGINSSGGSTYYADSVKGRFTISRDNSKNTLYLQMNSLRAEDTAVYYCAKWQFVTQPGHKAFDYWGQGTLVTVSS
notes: Variable-heavy-only (VHO) single domain; also called TS00376
B11: VHO v380 (VHH)
VHH: EVQLLESGGGLVQPGGSLRLSCAASGFTFSNYWMSWVRQAPGKGLEWVSGISQSGSSTYYADSVKGRFTISRDNSKNTLYLQMNSLRAEDTAVYYCAKWQFASWRGDKDFDYWGQGTLVTVSS
notes: Variable-heavy-only (VHO) single domain; also called TS00380
B12: VHO v377 (VHH)
VHH: EVQLLESGGGLVQPGGSLRLSCAASGFTFSDYWMSWVRQAPGKGLEWVSAISGDGSSTYYADSVKGRFTISRDNSKNTLYLQMNSLRAEDTAVYYCAKEDWRPGFDYWGQGTLVTVSS
notes: VHO single domain; also called TS00377
B13: CDH17 v5 (antibody, V domains shown)
VH: QVQLVQSGAEVKKPGSSVKVSCKVSGYTFTDHTIHWMKQRPGQGLEWIGYIYPRDVITQYNEKFKGKVTLTADKSTSTAYMELSSLRSEDTAVYLCARWGYFYGSRSYYFDYWGQGTTVTVSS
VL: DIVMTQSQKFMSTTVGDRVNITCKASQNVGTAVAWYQQKPGQSPKLLIYSASNRYTGVPDRFTGSGSGTDFTLTITNMQSKDLADYFCQQYSSYPWTFGGGTKLEIK
notes: typical human IgG heavy and light chain bands on SDS-PAGE
B14: CDH17 v6 (antibody, V domains shown)
VH: QVQLQQSDAELVKPGASVKISCKVSGYTFTDHTIHWMKQRPEQGLEWIGYIYPRDVITQYNEKFKGKATLTADKSSSTAYMQLNSLTSEDSAVYLCARWGYFYGSRSYYFDYWGQGTTLTVSS
VL: DIVMTQSQKFMSTTVGDRVNITCKASQNVGTAVAWYQQKPGQSPKLLIYSASNRYTGVPDRFTGSGSGTDFTLTITNMQSKDLADYFCQQYSSYPWTFGGGTKLEIK
notes: as for B13
B15: CDH17 v1 (antibody, human IgG1, V domains shown)
VH: EVQLQQSVAELVKPGASVKMSCKVSGYTLTDHTIHWMKQRPEQGLEWIGYIYPRDGITGYNEKFKGKATLTADTSSSTAYMQLNSLTSEDSAVYFCARWGYSYRNYAYYYDYWGQGTTLTVSS
VL: DIVMSQSPSSLAVSVGEKVTMSCKSSQSLLHSSNQKNYLAWYQQKPGQSPKVLIYWASTRESGVPDRFTGSGSGTDFTLTITSVKSEDLAVYYCQQYYSYPWTFGGGTRLEIK
notes: described as human IgG1 monoclonal antibody; also called anti-CDH17 v1
B16: CDH17 v4 (antibody, V domains shown)
VH: EVQLQQSVAELVKPGASVKMSCKVSGYTLTDHTIHWMKQRPEQGLEWIGYIYPRDGITGYNEKFKGKATLTADTSSSTAYMQLNSLTSEDSAVYFCARWGYSYRNYAYYYDYWGQGTTLTVSS
VL: DIVMTQSQKFMSTTVGDRVNITCKASQNVGTAVAWYQQKPGQSPKLLIYSASNRYTGVPDRFTGSGSGTDFTLTITNMQSKDLADYFCQQYSSYPWTFGGGTKLEIK
notes: as for B13
B17: CDH17 v2 (antibody, human IgG1, V domains shown)
VH: QVQLVQSGAEVKKPGSSVKVSCKVSGYTFTDHTIHWMKQRPGQGLEWIGYIYPRDVITQYNEKFKGKVTLTADKSTSTAYMELSSLRSEDTAVYLCARWGYFYGSRSYYFDYWGQGTTVTVSS
VL: DIVMSQSPSSLAVSVGEKVTMSCKSSQSLLHSSNQKNYLAWYQQKPGQSPKVLIYWASTRESGVPDRFTGSGSGTDFTLTITSVKSEDLAVYYCQQYYSYPWTFGGGTRLEIK
notes: described as human IgG1 monoclonal antibody; also called anti-CDH17 v2
B18: CDH17 v3 (antibody, V domains shown)
VH: QVQLQQSDAELVKPGASVKISCKVSGYTFTDHTIHWMKQRPEQGLEWIGYIYPRDVITQYNEKFKGKATLTADKSSSTAYMQLNSLTSEDSAVYLCARWGYFYGSRSYYFDYWGQGTTLTVSS
VL: DIVMSQSPSSLAVSVGEKVTMSCKSSQSLLHSSNQKNYLAWYQQKPGQSPKVLIYWASTRESGVPDRFTGSGSGTDFTLTITSVKSEDLAVYYCQQYYSYPWTFGGGTRLEIK
notes: as for B13

target: T1, recombinant human CDH17 (R&D systems); test: ELISA, recombinant human CDH17
Experimental: (§1) ELISA-based binding assay was employed to evaluate the binding to CDH17 by anti-CDH17 antibodies. In this assay, 100 μL of […] recombinant human CDH17 (R&D systems) was coated on an ELISA plate. Increasing concentrations of masked and reference mAbs were applied on the plate and their binding to the recombinant human proteins were detected by HRP-conjugated anti-human secondary antibody. […] The expressed anti-CDH17 mAbs had potent binding to CDH17. The anti-CDH17 were tested for binding to AGS gastric cancer cells and AsPC-1 pancreatic cancer cells.

Binding result, binds:
B1, B2

target: T2, human CDH17 on AGS gastric cancer cells …; test: flow cytometry on AGS and AsPC-1 cells

Binding result, binds:
B3, B4, B5, B6, B7, B8, B9, B10, B11, B1, B2, B12

target: T1, recombinant human CDH17 (R&D systems); test: ELISA, plate coated with recombinant human CDH17
Experimental: as §1

Binding result, binds:
B13, B14, B15, B16, B17, B18

From patent US20250270314A1 (TAVOTEK BIOTECH SUZHOU, published 2025)
